# Results taken from patent publication US20230140435.
# Changes are numbered by the printed parent chain. In names and notes the source's numbering stands.
# B1: tubulin tyrosine ligase (TTL) (protein)
# chain: MYTFVVRDENSSVYAEVSRLLLATGHWKRLRRDNPRFNLMLGERNRLPFGRLGHEPGLVQLVNYYRGADKLCRKASLVKLIKTSPELAESCTWFPESYVIYPTNLKTPVAPAQNGIQPPISNSRTDEREFFLASYNRKKEDGEGNVWIAKSSAGAKGEGILISSEASELLDFIDNQGQVHVIQKYLEHPLLLEPGHRKFDIRSWVLVDHQYNIYLYREGVLRTASEPYHVDNFQDKTCHLTNHCIQKEYSKNYGKYEEGNEMFFKEFNQYLTSALNITLESSILLQIKHIIRNCLLSVEPAISTKHLPYQSFQLFGFDFMVDEELKVWLIEVNGAPACAQKLYAELCQGIVDIAISSVFPPPDVEQPQTQPAAFIKL
# B2: TTL catalytic-dead construct (TTL-E331Q) (protein)
# chain: B1 chain with E331Q
# Target: free tubulin (tubulin dimers) of isolated rat cardiomyocytes
protein,measurement,value
B1,"free:polymerized tubulin ratio (microtubule fractionation assay, western blot, isolated rat cardiomyocytes)",Both TTL and TTL-E331Q overexpression increased the amount of free tubulin relative to polymerized microtubules
B2,"free:polymerized tubulin ratio (microtubule fractionation assay, western blot, isolated rat cardiomyocytes)",Both TTL and TTL-E331Q overexpression increased the amount of free tubulin relative to polymerized microtubules
